Data: paper PMC4376941, “The Gene YALI0E20207g from Yarrowia lipolytica Encodes an N-Acetylglucosamine Kinase Implicated in the Regulated Expression of the Genes from the N-Acetylglucosamine Assimilatory Pathway” (PLoS ONE, 2015)

Substrate: Nc1ncnc2c1ncn2[C@@H]1O[C@H](COP(=O)(O)OP(=O)(O)OP(=O)(O)O)[C@@H](O)[C@H]1O
Assay: purified protein
Type: biochemical, Yarrowia lipolytica
Settings: 4 mM NAGA, 0.1 M Tris-HCl pH 7.5, 30 °C, mean of two preparations

B1: YlNag5 (YALI0E20207p), N-acetylglucosamine (NAGA) kinase (Yarrowia lipolytica CLIB122) (protein)
chain: MSMGDDDRAYHHQMSVIVTAANANLPGHGKGPLVSVSSELLTKESHLMYDFERYVARNPSRFNQKVLDNLRIHHTYTRSSLDTLVNEFLAEITPACANRDAPSMLPSKMGSLPNDSLTGSVLSIDIGGSTLRGSMVDLEKMTVTDSVQHLIPDTVKNYSGSDFFDWIVERIMPLVKDCTATIIPIGLSWSFPIFQPHISSGLIQTMGKGYGVADEIINQDLKELFETHFASHGKTVEVGAILNDSVASLVAANYISNAPLCLILGTGINVSALIPKDQLKKTEQDQDKYIVNCEASLFGQCVSKTCWDLELDQALERPGFQPLESLSSGRYLGEICRLILRDLSKTGFLSRPDVGPYELTTAEVADLETADSGELDYVQDIILATSDRSAALASAFITAIYKLTGSDCESPSIAYDGTMVQKYPNFRPRMQQRLREQGLNVTFVAVEEGTVYGSAIACASQLSQ
notes: N-terminal GST fusion (pGEX-4T-2, plasmid pCL151), full-length ORF, expressed in E. coli BL21(DE3), glutathione-Sepharose eluted, tag not reported cut
Km: 1000 µM
